Assays:
Experiment in all cases: Kinase Profiling Assay
HIPK1(h) = HIPK1(h) (Homo sapiens, UniProt Q86Z02); assay type: biochemical
TAO1(h) = molecular target: T1, TAO1(h) (Homo sapiens, UniProt Q7L7X3); assay type: biochemical
T1 sequence (Q7L7X3 1-1001): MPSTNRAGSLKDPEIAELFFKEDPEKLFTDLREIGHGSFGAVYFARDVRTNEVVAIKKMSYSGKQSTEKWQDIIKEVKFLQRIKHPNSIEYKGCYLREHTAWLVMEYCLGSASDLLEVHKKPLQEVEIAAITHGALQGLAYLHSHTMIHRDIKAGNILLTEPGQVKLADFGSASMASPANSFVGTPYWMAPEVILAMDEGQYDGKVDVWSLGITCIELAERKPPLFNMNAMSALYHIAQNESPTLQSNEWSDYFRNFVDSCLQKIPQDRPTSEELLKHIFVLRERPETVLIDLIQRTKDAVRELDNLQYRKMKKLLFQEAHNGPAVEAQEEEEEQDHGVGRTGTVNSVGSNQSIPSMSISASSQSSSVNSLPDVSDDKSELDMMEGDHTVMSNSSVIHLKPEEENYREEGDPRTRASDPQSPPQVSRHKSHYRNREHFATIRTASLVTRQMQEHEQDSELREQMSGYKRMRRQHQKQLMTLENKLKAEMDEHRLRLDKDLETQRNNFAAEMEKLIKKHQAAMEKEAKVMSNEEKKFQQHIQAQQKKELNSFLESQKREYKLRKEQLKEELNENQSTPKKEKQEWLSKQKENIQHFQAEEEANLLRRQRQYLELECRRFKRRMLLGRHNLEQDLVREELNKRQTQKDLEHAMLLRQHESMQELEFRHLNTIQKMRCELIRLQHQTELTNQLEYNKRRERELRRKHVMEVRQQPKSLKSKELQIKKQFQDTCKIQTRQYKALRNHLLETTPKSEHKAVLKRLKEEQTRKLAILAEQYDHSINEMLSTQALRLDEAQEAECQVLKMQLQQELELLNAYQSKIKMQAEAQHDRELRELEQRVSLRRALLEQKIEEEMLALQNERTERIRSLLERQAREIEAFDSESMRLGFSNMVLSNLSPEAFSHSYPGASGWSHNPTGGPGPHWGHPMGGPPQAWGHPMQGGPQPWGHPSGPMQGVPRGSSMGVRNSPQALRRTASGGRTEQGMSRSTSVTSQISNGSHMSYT

PAK5(h) = PAK5(h) (Homo sapiens, UniProt Q9P286); assay type: biochemical; conditions: 100 μM
Chain of PAK5(h) (Q9P286 whole entry): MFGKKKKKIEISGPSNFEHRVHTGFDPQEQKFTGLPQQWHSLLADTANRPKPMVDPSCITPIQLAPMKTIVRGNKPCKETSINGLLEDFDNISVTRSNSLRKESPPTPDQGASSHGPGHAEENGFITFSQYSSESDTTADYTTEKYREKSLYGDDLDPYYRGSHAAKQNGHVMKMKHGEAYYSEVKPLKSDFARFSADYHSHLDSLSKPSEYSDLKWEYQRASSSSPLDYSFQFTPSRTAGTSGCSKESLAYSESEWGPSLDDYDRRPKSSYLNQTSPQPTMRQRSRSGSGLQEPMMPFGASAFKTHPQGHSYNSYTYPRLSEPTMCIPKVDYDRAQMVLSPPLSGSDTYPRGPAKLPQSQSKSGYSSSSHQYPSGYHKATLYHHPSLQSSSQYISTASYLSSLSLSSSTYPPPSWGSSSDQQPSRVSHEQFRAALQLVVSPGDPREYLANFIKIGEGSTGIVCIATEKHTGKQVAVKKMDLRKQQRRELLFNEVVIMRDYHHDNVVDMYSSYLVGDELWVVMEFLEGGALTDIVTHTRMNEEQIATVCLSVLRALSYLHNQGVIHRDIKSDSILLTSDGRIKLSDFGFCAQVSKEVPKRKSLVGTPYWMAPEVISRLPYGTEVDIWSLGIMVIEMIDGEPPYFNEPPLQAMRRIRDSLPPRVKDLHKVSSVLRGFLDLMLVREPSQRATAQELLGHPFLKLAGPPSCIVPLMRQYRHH

PKCβI(h) = PKCβI(h) (Homo sapiens, UniProt P05771); assay type: biochemical; conditions: 100 μM
Chain of PKCβI(h) (P05771 whole entry): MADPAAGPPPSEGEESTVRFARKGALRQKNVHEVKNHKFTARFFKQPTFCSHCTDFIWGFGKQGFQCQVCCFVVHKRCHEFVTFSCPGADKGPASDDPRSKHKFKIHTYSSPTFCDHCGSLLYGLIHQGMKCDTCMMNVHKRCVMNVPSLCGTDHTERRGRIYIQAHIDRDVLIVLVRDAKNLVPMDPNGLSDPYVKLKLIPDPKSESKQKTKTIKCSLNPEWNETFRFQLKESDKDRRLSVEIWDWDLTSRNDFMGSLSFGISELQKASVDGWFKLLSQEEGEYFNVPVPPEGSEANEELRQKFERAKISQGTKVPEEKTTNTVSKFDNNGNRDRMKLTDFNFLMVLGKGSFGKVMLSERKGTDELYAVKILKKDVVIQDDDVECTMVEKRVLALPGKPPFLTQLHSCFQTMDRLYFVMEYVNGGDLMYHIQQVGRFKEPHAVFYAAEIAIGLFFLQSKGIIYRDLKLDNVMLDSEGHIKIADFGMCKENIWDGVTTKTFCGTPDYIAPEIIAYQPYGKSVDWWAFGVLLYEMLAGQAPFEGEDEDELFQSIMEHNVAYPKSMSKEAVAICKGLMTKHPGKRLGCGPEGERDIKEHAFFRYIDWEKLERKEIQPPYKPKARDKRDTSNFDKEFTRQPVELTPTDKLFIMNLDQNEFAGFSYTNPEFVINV

MST3(h) = MST3(h) (Homo sapiens, UniProt Q9Y6E0); assay type: biochemical; conditions: 100 μM
SAPK3(h) = molecular target: T2, SAPK3(h) (Homo sapiens, UniProt P53778); assay type: biochemical; conditions: 100 μM
T2 sequence (P53778 1-367): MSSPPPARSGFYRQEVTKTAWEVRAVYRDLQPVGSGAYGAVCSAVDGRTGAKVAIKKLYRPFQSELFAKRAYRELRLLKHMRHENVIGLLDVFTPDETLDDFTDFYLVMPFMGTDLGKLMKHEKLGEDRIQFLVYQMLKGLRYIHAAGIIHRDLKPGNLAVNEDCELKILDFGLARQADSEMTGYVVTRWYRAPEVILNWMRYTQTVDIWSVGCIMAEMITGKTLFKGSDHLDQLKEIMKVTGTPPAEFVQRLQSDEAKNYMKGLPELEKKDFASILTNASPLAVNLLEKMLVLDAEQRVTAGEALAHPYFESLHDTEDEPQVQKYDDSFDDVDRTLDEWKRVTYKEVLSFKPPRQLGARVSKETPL

CK1δ(h) = CK1δ(h) (Homo sapiens, UniProt P48730); assay type: biochemical; conditions: 100 μM
Chain of CK1δ(h) (P48730 whole entry): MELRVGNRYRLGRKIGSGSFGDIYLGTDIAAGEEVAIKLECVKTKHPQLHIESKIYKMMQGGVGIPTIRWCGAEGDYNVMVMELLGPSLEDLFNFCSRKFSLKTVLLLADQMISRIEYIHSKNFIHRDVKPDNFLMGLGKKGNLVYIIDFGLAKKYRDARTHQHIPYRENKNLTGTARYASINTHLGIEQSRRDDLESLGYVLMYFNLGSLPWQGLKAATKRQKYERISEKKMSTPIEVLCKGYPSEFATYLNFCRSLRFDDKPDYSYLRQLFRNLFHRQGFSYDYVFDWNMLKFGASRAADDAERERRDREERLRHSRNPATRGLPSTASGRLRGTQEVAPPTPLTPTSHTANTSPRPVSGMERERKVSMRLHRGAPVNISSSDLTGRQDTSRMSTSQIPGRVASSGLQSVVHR

p70S6K(h) = assay type: biochemical, human; conditions: 100 μM
AMPKa2(h) = AMPKa2(h) (Homo sapiens, UniProt P54646); assay type: biochemical; conditions: 100 μM
Chain of AMPKa2(h) (P54646 whole entry): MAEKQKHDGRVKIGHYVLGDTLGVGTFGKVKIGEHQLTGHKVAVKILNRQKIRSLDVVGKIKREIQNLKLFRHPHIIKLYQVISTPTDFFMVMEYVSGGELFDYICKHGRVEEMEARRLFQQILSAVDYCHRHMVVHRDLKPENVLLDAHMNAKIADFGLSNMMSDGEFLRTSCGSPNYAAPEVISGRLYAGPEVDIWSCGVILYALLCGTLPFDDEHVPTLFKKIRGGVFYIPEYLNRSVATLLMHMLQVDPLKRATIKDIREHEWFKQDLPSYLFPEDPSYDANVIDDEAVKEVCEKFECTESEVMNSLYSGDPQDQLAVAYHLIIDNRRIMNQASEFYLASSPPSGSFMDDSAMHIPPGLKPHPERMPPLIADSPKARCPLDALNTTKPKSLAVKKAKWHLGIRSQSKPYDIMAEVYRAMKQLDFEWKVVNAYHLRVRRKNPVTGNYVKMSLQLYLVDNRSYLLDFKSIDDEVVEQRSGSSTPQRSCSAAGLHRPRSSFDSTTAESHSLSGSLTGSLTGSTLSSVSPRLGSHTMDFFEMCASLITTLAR
Chain of AMPKa2(h) (Q9Y478 whole entry partner): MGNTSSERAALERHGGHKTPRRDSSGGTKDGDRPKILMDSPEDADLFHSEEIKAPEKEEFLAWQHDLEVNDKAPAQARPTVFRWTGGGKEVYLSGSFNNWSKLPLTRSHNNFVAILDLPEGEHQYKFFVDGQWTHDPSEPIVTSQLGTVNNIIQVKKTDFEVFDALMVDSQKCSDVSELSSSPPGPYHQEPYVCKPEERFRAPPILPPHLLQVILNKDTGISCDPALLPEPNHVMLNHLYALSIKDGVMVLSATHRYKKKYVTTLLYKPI
Chain of AMPKa2(h) (P54619 whole entry partner): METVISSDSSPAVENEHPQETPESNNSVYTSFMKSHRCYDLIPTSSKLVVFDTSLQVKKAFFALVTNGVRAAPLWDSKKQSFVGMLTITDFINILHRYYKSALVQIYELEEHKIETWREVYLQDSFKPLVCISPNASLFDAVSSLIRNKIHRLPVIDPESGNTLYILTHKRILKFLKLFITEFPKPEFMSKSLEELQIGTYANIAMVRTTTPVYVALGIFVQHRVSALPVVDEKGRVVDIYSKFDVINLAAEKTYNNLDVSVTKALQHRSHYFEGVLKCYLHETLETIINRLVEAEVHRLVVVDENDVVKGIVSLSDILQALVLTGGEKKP

Syk(h) = Syk(h) (Homo sapiens, UniProt P43405); assay type: biochemical; conditions: 100 μM
TLK2(h) = TLK2(h) (Homo sapiens, UniProt Q86UE8); assay type: biochemical; conditions: 100 μM
PKCα(h) = PKCα(h) (Homo sapiens, UniProt P17252); assay type: biochemical; conditions: 100 μM
MKK6(h) = molecular target: T3, MKK6(h) (Homo sapiens, UniProt P52564); assay type: biochemical; conditions: 100 μM
T3 sequence (P52564 1-334): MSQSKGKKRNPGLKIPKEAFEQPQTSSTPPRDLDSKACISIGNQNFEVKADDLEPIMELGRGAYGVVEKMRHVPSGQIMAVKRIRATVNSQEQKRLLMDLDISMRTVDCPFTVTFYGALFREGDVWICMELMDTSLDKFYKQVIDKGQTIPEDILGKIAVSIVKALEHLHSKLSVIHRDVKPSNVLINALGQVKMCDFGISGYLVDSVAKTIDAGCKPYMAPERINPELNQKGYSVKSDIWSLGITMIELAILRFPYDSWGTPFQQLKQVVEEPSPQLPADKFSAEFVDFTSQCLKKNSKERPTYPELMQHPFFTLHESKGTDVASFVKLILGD

CaMKIIγ(h) = CaMKIIγ(h) (Homo sapiens, UniProt Q13555); assay type: biochemical; conditions: 100 μM

Chain of HIPK1(h) (Q86Z02 whole entry): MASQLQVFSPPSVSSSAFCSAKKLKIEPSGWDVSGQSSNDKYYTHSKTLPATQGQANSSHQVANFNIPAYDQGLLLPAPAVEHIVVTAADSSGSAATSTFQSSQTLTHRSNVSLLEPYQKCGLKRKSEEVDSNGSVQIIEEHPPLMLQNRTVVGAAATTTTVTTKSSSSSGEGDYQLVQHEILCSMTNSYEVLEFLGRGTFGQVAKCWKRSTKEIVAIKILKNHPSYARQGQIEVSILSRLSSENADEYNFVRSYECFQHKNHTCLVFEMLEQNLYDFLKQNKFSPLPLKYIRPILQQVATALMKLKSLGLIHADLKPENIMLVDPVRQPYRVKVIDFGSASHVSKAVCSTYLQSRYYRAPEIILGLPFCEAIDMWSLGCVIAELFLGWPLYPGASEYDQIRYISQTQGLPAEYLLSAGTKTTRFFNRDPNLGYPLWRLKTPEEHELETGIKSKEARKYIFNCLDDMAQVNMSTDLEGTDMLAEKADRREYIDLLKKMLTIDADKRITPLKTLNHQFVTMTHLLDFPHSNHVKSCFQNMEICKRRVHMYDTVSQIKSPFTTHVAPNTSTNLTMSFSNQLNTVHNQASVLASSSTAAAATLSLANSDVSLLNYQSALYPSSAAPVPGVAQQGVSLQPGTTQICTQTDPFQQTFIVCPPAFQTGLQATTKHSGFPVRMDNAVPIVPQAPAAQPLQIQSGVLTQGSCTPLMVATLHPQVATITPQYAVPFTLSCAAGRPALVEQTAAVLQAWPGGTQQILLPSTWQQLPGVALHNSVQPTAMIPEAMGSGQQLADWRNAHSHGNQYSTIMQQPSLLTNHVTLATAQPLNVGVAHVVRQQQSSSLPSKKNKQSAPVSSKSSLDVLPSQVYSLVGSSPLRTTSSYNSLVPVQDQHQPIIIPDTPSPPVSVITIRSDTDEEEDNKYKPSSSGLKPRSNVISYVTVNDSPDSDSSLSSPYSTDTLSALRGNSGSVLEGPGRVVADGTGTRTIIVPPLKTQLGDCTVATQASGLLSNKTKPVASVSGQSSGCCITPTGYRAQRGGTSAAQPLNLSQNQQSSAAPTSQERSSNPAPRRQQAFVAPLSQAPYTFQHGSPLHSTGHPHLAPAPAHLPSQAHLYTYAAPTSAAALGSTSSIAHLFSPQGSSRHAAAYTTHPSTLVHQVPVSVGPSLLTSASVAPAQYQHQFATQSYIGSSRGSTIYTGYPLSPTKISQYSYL

Substance | activity at 100 µM (HIPK1(h)) | activity at 100 µM (TAO1(h)) | % activity (PAK5(h)) | % activity (PKCβI(h)) | % activity (MST3(h)) | % activity (SAPK3(h)) | % activity (HIPK1(h); 100 μM) | % activity (CK1δ(h)) | % activity (p70S6K(h)) | % activity (AMPKa2(h)) | % activity (Syk(h)) | % activity (TLK2(h)) | % activity (PKCα(h)) | % activity (MKK6(h)) | % activity (CaMKIIγ(h)) | % activity (TAO1(h); 100 μM)
H-YARAAARQARAKALARQLGVAA-OH [MMI-0100] | 94% | 99% | – | – | – | – | – | – | – | – | – | – | – | – | – | –
HRRIKAWLKKIKALARQLGVAA (Mammalian) [MMI-0500] | – | – | 125% | 1% | 4% | 24% | 47% | 78% | 3% | 9% | 5% | 133% | 3% | 18% | 3% | 24%
YARAAARQARAKALNRQLGVA (Mammalian) [MMI-0200] | – | – | 100% | 98% | 95% | 97% | – | 92% | 84% | 88% | 36% | 129% | 100% | 98% | 94% | –
